From the DeepSol protein solubility set come the findings set out here.

The nature of the series: soluble on expression in E. coli; label from the status in PepcDB or PDB records.
As to “MAQEFSGDVFVISVAAELAGMHAQTLRTYDRLGLVTPQRTRGGGRRYSRDDVELLRTVQHLSQVEGVNLAGIKSIIELKKENAQLRKELAAARAEADVLKNRGARPRGEIVHVPRSTAVVMWQPRRSSRQHD”, the “soluble on expression in E. coli” value is “not soluble”.
With “MAQHFRLSTAARQLSSDSLVCLPDAEIFQRLKQARWGNADNFVCPHCHIRHLAYFISTRKQWQCKHCQHRFSITAGTIFQGAKLPLRKILLAILYFATESKGLSAIALSHKLNVQYKTAWVLLHKFRESLDKAKDLTPLNGEVHIDGAYTNYYIRPKNFRHKRIDRRKKRYQRADKSCVLVFRQRAANQAVMKGADRSIVALVKEENTKDVLELTQRLVKPNSTIHADENPAYDCLAFHYDLWRVNHSQEYRSIEGITNNLAESFFARLRRAITGIYHKMSNKYLMYYANEMVWREDHRRKSVKEKFEQLLTCCLNTLPSRDFTGYWQGNKKGEAVFGLASLTASNDLHYLKAALEHHHHHH” the entry was “soluble”; with “MAQLYFYYSAMNAGKSTALLQSSYNYQERGMRTVVYTAEIDDRFGAGKVSSRIGLSSPAKLFNQNSSLFDEIRAEHEQQAIHCVLVDECQFLTRQQVYELSEVVDQLDIPVLCYGLRTDFRGELFIGSQYLLAWSDKLVELKTICFCGRKASMVLRLDQAGRPYNEGEQVVIGGNERYVSVCRKHYKEALQVGSLTAIQERHRHD”, “not soluble”.
With “MAQQKKTIAVVGATGRQGASLIRVAAAVGHHVRAQVHSLKGLIAEELQAIPNVTLFQGPLLNNVPLMDTLFEGAHLAFINTTSQAGDEIAIGKDLADAAKRAGTIQHYIYSSMPDHSLYGPWPAVPMWAPKFTVENYVRQLGLPSTFVYAGIYNNNFTSLPYPLFQMELMPDGTFEWHAPFDPDIPLPWLDAEHDVGPALLQIFKDGPQKWNGHRIALTFETLSPVQVCAAFSRALNRRVTYVQVPKVEIKVNIPVGYREQLEAIEVVFGEHKAPYFPLPEFSRPAAGSPKGLGPANGKGAGAGMMQGPGGVISQRVTDEARKLWSGWRDMEEYAREVFPIEEEANGLDWML” the entry was “soluble”.
With “MAQRVQLTATVSENQLGQRLDQALAEMFPDYSRSRIKEWILDQRVLVNGKVCDKPKEKVLGGEQVAINAEIEEEARFEPQDIPLDIVYEDEDIIIINKPRDLVVHPGAGNPDGTVLNALLHYYPPIADVPRAGIVHRLDKDTTGLMVVAKTVPAQTRLVESLQRREITREYEAVAIGHMTAGGTVDEPISRHPTKRTHMAVHPMGKPAVTHYRIMEHFRVHTRLRLRLETGRTHQIRVHMAHITHPLVGDPVYGGRPRPPKGASEAFISTLRKFDRQALHATMLRLYHPISGIEMEWHAPIPQDMVELIEVMRADFEEHKDEVDWL” the entry was “soluble”; with “MAQSFLLMGALIQHHLKGEKADLLTPEKLLEAANKQGTVPSRVRYQWMEDEETGRLKAVGYHTSMESGRDQVRVRLLKHDFPNNRYEFWEEGATGPTILWTPDNPGIELPTDTAHGEQPVIPSAIPGLEIPEMDDVSILATPMPDEKDFRDYILVFPENAFPPIYVYLSKKIDTPIWLEHHHHHH”, “soluble”; with “MAQTEKLTDYVNPFVGTDGYGNVYPGAQIPFGGIQISPDTDSRFYDAASGYKYNHLTLMGFSLTHLSGTGIPDLGDFLFIPGTGEMKLEPGTHEDPDQGYRSRYSHDKEWASPNYYAVELADYGVKAEMTSGVRSGMFRFTYPESDNAFIMIDMNHTLWQSCEWSNLRMINDSTITGYKLVKGWGPERHVYFTATFSKKLEHHHHHH”, “not soluble”.
Regarding “MARARARPGAVMSISGGLVRRRAEGRPLPAASAMSTVTLHRVLRASPERVYRAFLDAAALSKWLPPHGFTNTVEHLDARVGGTFRMAFTQFGSGQRHAFGGTYRELVPNALLRYDDVFDDPSLPGTLLTTVRLLPLPCGTDLHVVQEGIPEQIPLHACYLGWQESLTLLALLVEAQRAELEHHHHHH”, the “soluble on expression in E. coli” value is “not soluble”.
Consider “MARKIRKLRKAEVNYITIKATLEAEKKEDYLKLALLTEKFKRAVELSIRLQLKGVKKSEGVKEVSRLILNNWWYSDSAWDYAKMLRKGAERS”, for which the “soluble on expression in E. coli” value was “not soluble”.
Under “MARLNVNPTRMELSRLKKQLTTATRGHKLLKDKQDELMRRFIALVKENNELRIQVEQEVTDALSNFVLANATLNEAFIEELVAIPAEKVELEIIEQNILSVPVPKMIFDYDESVQEAPLDYGYVNSNSELDQAFAKISSILPKLLALANVEKTCQLLSKEIEKTRRRVNALEYMTIPQLEETIYYIQMKLEENERGEITRLIKIKSMNKENLEHHHHHH” stands “not soluble”; under “MARNAEKAMTALARFRQAQLEEGKVKERRPFLASECTELPKAEKWRRQIIGEISKKVAQIQNAGLGEFRIRDLNDEINKLLREKGHWEVRIKELGGPDYGKVGPKMLDHEGKEVPGNRGYKYFGAAKDLPGVRELFEKEPLPPPRKTRAELMKAIDFEYYGYLDEDDGVIVPLEQEYEKKLRAELVEKWKAEREARLARGEKEEEEEEEEEINIYAVTEEESDEEGSQEKGGDDSQQKFIAHVPVPSQQEIEEALVRRKKMELLQKYASETLQAQSEEARRLLGY”, “soluble”; under “MARPETESKTIFGKRLRYVRLALGDPSREALAKSFSMTKNSIAFYERGEREPNLSVLQTYRTLYGVNINWLLTGQGKMFDTEYTKGDFDWNYFIKKIEGLEEILSNSDRSEKLNQEKIESSYEKLQQYLSRQGSTNRYTPKAATSLIDMKAKMANSYALSLFIDLLIRSISQKEVVANQ”, “not soluble”.
With “MARPQSKKKQTQVARRPRRRGRWVPPSRLIAGRDFPEFLRQAVLLSGSLRQAARKLRVSYSTLRGWLGRRCEEPPEGERDLLAGHVAAIRTELDVAAEHLAIVRGQLDALERGDDG” the entry was “not soluble”; with “MARQHRLRAGRPVAAEACMSGGETGRTLRALFMSVSLGAGHDQAQQAVKQAFAERGVELLGAEHDSVEYLSTFERSFTVDLYEFELRYAPWLYRGFYWLTDQDQPWNIISRMFTWLGMGAFKDELRELRPEVVINSFWAPAAVCDTLRAQTGQRFLNCLIVTDYRAHLHWARRETDLLMVASEETRRQMLERGVRPEQVEVTGIPISPAFREVLAADRWALRAELFSEMSLRPGVPLLLLSGGGRGHYAAAADVLTELGNLGRAVQVLVPASRQGEGTETIGGATVHHLGFRRDLPRLLAASDLVVGKAGGLTVAEATALGVPLVIYAPIPGQEEHNADFLERHGAGLWARARHDVRPLVLRALDPAEHARLSAGARAVGIPDAADRVAGAILRRLGDGLGDELGDSRGPA”, “not soluble”.
Under “MASEHHEALNLYAVRVARGEGVKQDFARAASLFRRADRCGFNCEPVYDDMVNDFRDKAFGMELVSSKRAFLKALRPETAEARCTVGEAFIGQGDADSLRTGRELLTSAATLGSGKAMYLLGVLCRDGKGVAANAERAFMWFSLAASCGFAKAESERVNAEGKLDDAGRTRAMQLAARWRRQYLAPVCLEHHHHHH” stands “not soluble”.
Regarding “MASIDRFQVMQEPELKILEHWFENEDTRRRMDGMLLLDEWYARVNKDKHDTVIMAYDGQLPAGMVVIEFGEERTYIGLIVNPLYRLKGYGKQILQKLMTEPDFTSVREWVACIEEDNRISLACFQAAGFTLEDTEPDEDGFLTLILRNLEHHHHHH”, the “soluble on expression in E. coli” value is “not soluble”.
Consider “MASLYLGLGFLVSMHSTKPEKADIIVILGGDDGLRVSKGGDLYKAGYAKHVLLTGIDSRYYRPNHPNWRERKLMARGVPRKHIIVDTWSETSWEEAENTSDLMDKNGWKSALVVSDPPHMLRLNKTWKKAFAGTNKRFRLVATEPSWWNPLLWWRNPISYRFVINELKKNIYYLVTYYLEHHHHHH”, for which the “soluble on expression in E. coli” value was “not soluble”.
Turning to “MASMTGGQQMGRGSMAGVLPAHGTQHGIRLPLRSGLGGAPLGLRLPRETDEEPEEPGKKGSFVEMVDNLRGKSGQGYYVEMTVGSPPQTLNILVDTGSSNFAVGAAPHPFLHRYYQRQLSSTYRDLRKGVYVPYTQGKWEGELGTDLVSIPHGPNVTVRANIAAITESDKFFINGSNWEGILGLAYAEIARPDDSLEPFFDSLVKQTHVPNLFSLQLCGAGFPLNQSEVLASVGGSMIIGGIDHSLYTGSLWYTPIRREWYYEVIIVRVEINGQDLKMDCKEYNYDKSIVDSGTTNLRLPKKVFEAAVKSIKAASSTEKFPDGFWLGEQLVCWQAGTTPWNIFPVISLYLMGEVTNQSFRITILPQQYLRPVEDVATSQDDCYKFAISQSSTGTVMGAVIMEGFYVVFDRARKRIGFAVSACHVHDEFRTAAVEGPFVTLDMEDCGYNIPQTDES”, the “soluble on expression in E. coli” value is reported as “soluble”.
For “MASSIDPLTRLHGILSSYLSEVLGVDRSVVERLLAPPPRKEYGDLGFPLMRFARSSNASADSIVESLRGKLWERGITWASPTLEAGYLNIVFDVEKLGDEVFRLLASGWRPSTARTSRPETIVVEHTSANPIHPLHLGHARNSSLGDALARLLEARGHRVNRRFYVDDVGRQAVVASLGFKLSGVTPRELASRMGVKVDHAVGWVYAVTHNALETVTARKRGDTSKVDEALSTLARLKERGDREVFDRILEAVGSLDDPEGLVSEMMRKYERGEEPEKSLIRGVVSAVLEGFRETLGRFGVDFDDWDWESDLLWSGLVNKIIEEARRSPFLTTHKDAIALDIPRIVREVLARDPEAASTIKLPRSLEIPPLILVRSDGTTLYTTRDLAYSVYKFRVTGADRVINVIGADQRLPQLQIRLALLGLGYRREALNMMHYDYEIVSLPGRRMSSRRGEYVTLDELLEMAKARSVREVESRNPGADRDWIESTAEKIAVGAVRFALVRPGRLKPITLDVERILDLKENTAPYLQYTYARASSILEKHGEIDYLKAHPASLEEGSRRELFVEALRFPLVSAKAADDLAPEDLASYLLRLADMFNSWYQKDSVIHEEWEGARHAKAALVLLVKSVIGEGLRLLGVEPLEKM”, the “soluble on expression in E. coli” value was “soluble”.
For “MASSVVFAATGSLSVPPLKSRRFYVNSSLDSDVSDMSVNAPKGLFPPEPVPYKGPKLKVAIIGAGLAGMSTAVELLDQGHEVDIYDSRTFIGGKVGSFVDRRGNHIEMGLHVFFGCYNNLFRLMKKVGAEKNLLVKDHTHTFINKDGTIGELDFRFPVGAPIHGIRAFLVTNQLKPYDKLRNSLALALSPVVKALVDPDGAMRDIRNLDSISFSDWFLSKGGTRASIQRMWDPVAYALGFIDCDNMSARCMLTIFSLFATKTEASLLRMLKGSPDVYLSGPIKQYITDRGGRIHLRWGCREILYDKSADGETYVTGLAISKATNKKIVKADVYVAACDVPGIKRLLPKEWRESRFFNDIYELEGVPVVTVQLRYNGWVTELQDIELARQLKRAVGLDNLLYTPDADFSCFADLALASPADYYIEGQGTLLQCVLTPGDPYMRMPNDKIIEKVAMQVTELFPSSRGLEVTWSSVVKIAQSLYREAPGKDPFRPDQKTPIKNFFLAGSYTKQDYIDSMEGATLSGRQASSYICDAGEELAELNKKLSSSATAVPDELSLV”, the “soluble on expression in E. coli” value is “not soluble”.
Turning to “MASTRPDNVLVWMASRGSYVESMPGTILRIKNASKFGENLYGFKDQPGELVEVTWDAMFKLRPTLVEVDFGRNPCDELVKVIEKNYNNEQISHFFEKVKALSLHMTDITSESLLKLMDKFTLLAAFSFSETKFSTPEWATILKRLSELNLRGIDLSDNILSEVQQHIDVSLMKLSGNPGVDVNEFKKGIEFVTVKVLAVQELKFLGETDAEQLLEVLPQSFPRLETLIWDWNVVDPELNFDERTKKVLDQLLFVNKQLNLGSLAVVAYTPNPETKTAIESVARTLKGSIKDVQLHQFATKGLSDGMANFSLIVAGNNEKAMKELMDMYMVDRSTMPPMGKLLRLCEEDIVPIYPAITMDFGGFNKNRIRQLYTESPTD”, the “soluble on expression in E. coli” value is reported as “not soluble”.
